Where a chain is given by its changes, count along the chain named. Each block holds one molecule with its values, some of them ahead of it.
Tests used:
F28A = biological target: T1, F28A; assay: flow cytometry, CHO-K1; sub-column 1 of 2
T1 construct: also called hCD27 F28A
T1 receptor: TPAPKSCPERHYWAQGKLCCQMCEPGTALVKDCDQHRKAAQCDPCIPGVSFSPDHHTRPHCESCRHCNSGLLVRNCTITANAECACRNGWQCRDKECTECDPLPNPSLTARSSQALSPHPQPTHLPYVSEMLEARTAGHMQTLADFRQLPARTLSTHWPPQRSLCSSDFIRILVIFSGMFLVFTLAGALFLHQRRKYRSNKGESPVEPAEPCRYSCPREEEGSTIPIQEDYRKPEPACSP

I46A = biological target: T2, I46A; assay: flow cytometry, CHO-K1; sub-column 1 of 2
T2 construct: also called hCD27 I46A
T2 receptor: T1 receptor with A28F, I46A

S63A = biological target: T3, S63A; assay: flow cytometry, CHO-K1; single column;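 note: CHO-K1 cells transiently transfected with hCD27 alanine mutant constructs, anti-hCD27 antibody binding measured by flow cytometry, 30 min at 4 °C, wild-type hCD27 binding taken as 100%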
T3 construct: also called hCD27 S63A
T3 receptor: T1 receptor with A28F, S63A
Description: (§1) The ability of several anti-hCD27 antibodies to bind to a series of hCD27 alanine mutants was determined using CHO-K1 cells, transiently transfected pCI-neo empty vector, pCI-neo.hCD27 and several pCI-neo.CD27Ala mutant constructs.
(§2) Detached cells were transferred to 96 wells round-bottomed well plates at approximately 1.2×10⁵ cells/well. After spinning down the cells, discarding the supernatants and re-suspending the cells in the residual volume, the primary antibodies were added and incubated for 30 minutes at 4° C. Cells were washed three times with DPBS/BSA 1%, followed by centrifugation, discarding of the supernatants and re-suspension in the residual volume. […] After washing once, antibody binding was detected using the HTS plate reader (FACS Canto II) and FlowJo software for data analysis. Debris, dead cells and doublets were excluded from the analysis. Binding was expressed as the geometric mean of the FITC signal, relative to antibody binding to hCD27, which was set at 100%.

H36A = biological target: T4, H36A; assay: flow cytometry, CHO-K1; single column;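 note: CHO-K1 cells transiently transfected with hCD27 alanine mutant constructs, anti-hCD27 antibody binding measured by flow cytometry, 30 min at 4 °C, wild-type hCD27 binding taken as 100%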
T4 construct: also called hCD27 H36A
T4 receptor: T1 receptor with A28F, H36A
Description: as §1, §2

K38A = biological target: T5, K38A; assay: flow cytometry, CHO-K1; single column;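 note: CHO-K1 cells transiently transfected with hCD27 alanine mutant constructs, anti-hCD27 antibody binding measured by flow cytometry, 30 min at 4 °C, wild-type hCD27 binding taken as 100%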
T5 construct: also called hCD27 K38A
T5 receptor: T1 receptor with A28F, K38A
Description: as §1, §2

V30A = biological target: T6, V30A; assay: flow cytometry, CHO-K1; single column;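 note: CHO-K1 cells transiently transfected with hCD27 alanine mutant constructs, anti-hCD27 antibody binding measured by flow cytometry, 30 min at 4 °C, wild-type hCD27 binding taken as 100%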
T6 construct: also called hCD27 V30A
T6 receptor: T1 receptor with A28F, V30A
Description: as §1, §2

Q15A = biological target: T7, Q15A; assay: flow cytometry, CHO-K1; single column
T7 construct: also called hCD27 Q15A
T7 receptor: T1 receptor with Q15A, A28F
Description: as §1, §2

G16A = biological target: T8, G16A; assay: flow cytometry, CHO-K1; single column
T8 construct: also called hCD27 G16A
T8 receptor: T1 receptor with G16A, A28F
Description: as §1, §2

R37A = biological target: T9, R37A; assay: flow cytometry, CHO-K1; single column
T9 construct: also called hCD27 R37A
T9 receptor: T1 receptor with A28F, R37A
Description: as §1, §2

R10A = biological target: T10, R10A; assay: flow cytometry, CHO-K1; single column
T10 construct: also called hCD27 R10A
T10 receptor: T1 receptor with R10A, A28F
Description: as §1, §2

% of WT hCD27 binding (geo mean FITC) (F28A): 113%
% of WT hCD27 binding (geo mean FITC) (I46A): 129%
Molecule: 1A4 (mouse IgG1) (antibody)

% of WT hCD27 binding (geo mean FITC) (F28A): 115%
% of WT hCD27 binding (geo mean FITC) (I46A): 137%
Molecule: 9F4 (mouse IgG2a) (antibody)

% of WT hCD27 binding (geo mean FITC) (F28A): 106%
% of WT hCD27 binding (geo mean FITC) (I46A): 132%
B1: Antibody hCD27.131A (mouse parental 131A) (antibody, V domains shown)
VH: QIQLVQSGPELKKPGETVKISCKASGYTFTNYGMNWVKQAPGKGLKWMGWINTNTGEPTYAEEFKGRFAFSLETSATTAYLQINNLKNEDTATYFCAREGDAMDYWGQGTSVTVSS
VL: QIVLTQSPAIMSASPGEKVTMTCSASSSVSYMHWYQQKSGTSPKRWIYDTSKLASGVPARFSGSGSGTSYSLTISSMEAEDAATYYCQQWNSYPFTFGSGTKLEIK
notes: mouse IgG1; also called mouse hCD27.131A

% of WT hCD27 binding (geo mean FITC) (S63A): 104%
% of WT hCD27 binding (geo mean FITC) (H36A): 122%
% of WT hCD27 binding (geo mean FITC) (K38A): 97.6%
% of WT hCD27 binding (geo mean FITC) (V30A): 82.6%
% of WT hCD27 binding (geo mean FITC) (Q15A): 98.6%
% of WT hCD27 binding (geo mean FITC) (G16A): 141%
% of WT hCD27 binding (geo mean FITC) (R37A): 106%
% of WT hCD27 binding (geo mean FITC) (R10A): 58.9%
B2: hCD27.15-6B (humanized hCD27.15, human IgG4, Clone 6B) (antibody, V domains shown)
VH: QVQLVQSGAEVKKPGASVKVSCKASGFIIKATYMHWVRQAPGQRLEWMGRIDPANGETKYDPKFQVRVTITADTSASTAYMELSSLRSEDTAVYYCARYAWYFDVWGQGTLVTVSS
VL: DIQMTQSPSSLSASVGDRVTITCRASENIYSFLAWYQQKPGKAPKLLIYHAKTLAEGVTSRFSGSGSGTDFTLTISSLQPEDSATYYCQHYYGSPLTFGQGTRLEIKR
notes: humanized version of hCD27.15 from WO2012/004367 with identical CDR regions; also called hCD27.15 (humanized 6B); hCD27.15 6B humanized antibody

Reference: patent US20190300618A1 (Merck Sharp & Dohme, published 2019)
